# Laboratory results published in article PMC3138754, “α-SNAP Prevents Docking of the Acrosome during Sperm Exocytosis because It Sequesters Monomeric Syntaxin” (PLoS ONE, 2011).
# Molecular target: T1, syntaxin1 (1–262), cytosolic domain (UniProt P32851 1-262)
# T1 construct: syntaxin1 residues 1-262 (cytosolic domain); pET28a plasmid from D. Fasshauer; rat syntaxin 1A is surmised from the source of the plasmid; also called syntaxin 1–262; cytosolic domain of syntaxin1; source: E. coli BLR(DE3), pET28a plasmid, extracted in 6 M urea, purified on Ni-NTA with renaturing during the washing step
# T1 sequence (P32851 1-262): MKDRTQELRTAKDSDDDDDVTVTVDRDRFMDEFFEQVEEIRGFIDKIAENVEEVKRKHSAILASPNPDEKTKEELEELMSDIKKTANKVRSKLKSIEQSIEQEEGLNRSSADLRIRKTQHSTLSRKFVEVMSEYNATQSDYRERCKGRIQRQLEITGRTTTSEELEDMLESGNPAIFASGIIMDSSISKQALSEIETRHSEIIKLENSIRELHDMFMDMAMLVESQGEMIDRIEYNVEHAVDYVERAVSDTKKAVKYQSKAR
# Experiment: co-IP; 0.9 µM syntaxin 1-262 with 1, 2.5 or 5 µM α-SNAP wild type or M105I, NSF and ATP omitted; anti-syntaxin immunoprecipitation, anti-α/β-SNAP blot, densitometry normalised to syntaxin
# Conditions: both partners purified
binder,measurement,value
"α-SNAP-M105I (natural protein, UniProt P81125 1-295, looked up, α-SNAP with the point mutation M105I that occurs in hyh mice; pET28 plasmid from P. Hanson; called one of the three full length proteins; also called M105I mutant; the mutant of the hyh mouse; source: E. coli BLR(DE3), pET28 plasmid, purified (Ni-NTA, native conditions)) MDNSGKEAEAMALLAEAERKVKNSQSFFSGLFGGSSKIEEACEIYARAANMFKMAKNWSAAGSAFCQAAHVHLQLQSKHDAATCFVDAGNAFKKADPQEAINCLIRAIEIYTDMGRFTIAAKHHISIAEIYETELVDIEKAIAHYEQSADYYKGEESNSSANKCLLKVAGYAAQLEQYQKAIDIYEQVGTNAMDSPLLKYSAKDYFFKAALCHFCIDMLNAKLAVQKYEELFPAFSDSRECKRIKKLLEAHEEQNVDSYTEAVKEYDSISRLDQWLTTMLLRIKKTIQGDEEDLR",fold amount recovered with syntaxin against the wild type,2 fold
